The results in this text go back to patent US20120100536A1 (UNIVERSITY OF TOKYO, published 2012).

The target in the test is T1, α1-antitrypsin (UniProt P01009 25-418).
T1 construct: Co-expressed with HTRA1-V5 in HEK293 cells; Complex detected in serum-free conditioned medium by anti-V5 immunoblot; also called al-antitrypsin
The test is described as follows: co-expression in HEK293, anti-V5 immunoblot of conditioned medium. On the procedure:
To assay formation of a stable complex with α1-antitrypsin, we transiently expressed α1-antitrypsin and either wild-type or mutated HTRA1 cDNAs with a VS tag at the C-terminus in HEK293 cells. These cells were grown in serum-free medium, and conditioned media were then immunoblotted with anti-V5 antibody.¹⁴
For orientation: A western blot detects proteins with antibodies after separation by electrophoresis.

T1 sequence (P01009 25-418 limits assumed): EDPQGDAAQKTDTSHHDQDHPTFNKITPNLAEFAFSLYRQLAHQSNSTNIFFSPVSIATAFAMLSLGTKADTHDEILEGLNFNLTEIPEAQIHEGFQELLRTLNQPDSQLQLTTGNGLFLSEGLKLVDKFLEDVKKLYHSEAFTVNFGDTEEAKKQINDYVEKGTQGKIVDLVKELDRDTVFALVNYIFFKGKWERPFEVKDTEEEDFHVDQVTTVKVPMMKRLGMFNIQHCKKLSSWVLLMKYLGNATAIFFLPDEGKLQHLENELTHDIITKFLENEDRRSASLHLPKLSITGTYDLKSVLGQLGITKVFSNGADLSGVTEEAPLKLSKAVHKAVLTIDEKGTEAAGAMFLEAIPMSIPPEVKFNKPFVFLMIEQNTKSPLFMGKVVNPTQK

B1: HTRA1 R302X with a V5 tag at the C-terminus (enzyme)
chain: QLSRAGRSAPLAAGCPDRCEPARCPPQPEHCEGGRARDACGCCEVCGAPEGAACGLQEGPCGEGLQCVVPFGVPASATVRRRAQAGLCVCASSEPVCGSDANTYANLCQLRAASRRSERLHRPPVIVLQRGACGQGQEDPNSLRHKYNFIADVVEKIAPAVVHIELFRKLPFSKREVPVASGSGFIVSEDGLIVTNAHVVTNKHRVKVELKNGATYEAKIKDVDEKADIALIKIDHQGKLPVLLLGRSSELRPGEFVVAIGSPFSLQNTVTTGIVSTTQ
notes: The range 1-301 is derived from that statement; not shown: C-terminal V5 tag
For B1, the binding result is listed as “no binding”.
